Data: US20060115482A1, “Modifications of histone proteins as indicators of cell proliferation and differentiation” (The Regents of the University of California, priority 2004, published 2006)

Legend:
H2B-S33 = experiment: In vitro kinase assay (γ32P-ATP, SDS-PAGE, autoradiography, scintillation counting); assay type: biochemical, Drosophila; settings: for H2B phosphorylation in vitro (qualitative): autoradiography; for Turnover values for phosphorylation of H2B-S33: 3 μg enzyme
Experimental: Kinase reactions were programmed with 1 μg RAP74, 1 μg recombinant histone, 2 μg polynucleosomes, 2 μg histone octamers, or 300 ng histone peptide, and contained 400 ng endogenous TFIID or 250 ng recombinant TAF1 derivatives and 0.25 μCi γ^32P-ATP. Reactions were performed in 20 μl kinase buffer (25 mM Hepes (pH 7.6), 10% glycerol, and 400 mM NaCl) for 25 min at 25° C. Reaction products were analyzed by SDS-PAGE using 8%—(for recombinant proteins), 15%—(for histones), or 18% (for peptides) gels. After electrophoresis, gels were dried and exposed to X-ray film.
To quantify kinase reactions, reactions products were separated by SDS-PAGE and detected by coomassie blue staining. Radiolabeled H2B was detected by autoradiography, excised from the gel, and analyzed by scintillation counting.
To measure the kinase activity of TFIID, TAF1, CTK, and mutant CTK-derivatives, reaction products of in vitro kinase assays were separated by SDS-PAGE and stained with coomassie blue. Radiolabeled H2B, H2BT and controls were excised from the gel and incorporation of radioactivity was determined by scintillation counting. Turnover values for phosphorylation of H2B-S33 were determined by measuring incorporation of radiolabeled phosphate groups into H2B in the presence of 3 μg TAF1, TFIID, or CTK-derivatives and 3 μg H2B or 12 μg nucleosomes. The turnover values were: TFIID (nucleosomes: 3.3/sec; H2B: 2.6/sec); TAF1: (nucleosomes: 2.5/sec; H2B: 2.5/sec); CTK: (nucleosomes: 2.6/sec; H2B: 4.4/sec).

acetylated H4 = target: T1, acetylated H4 (Homo sapiens, UniProt P62805); experiment: Acetylated-lysine interaction assay; assay type: binding; settings: H4 peptide acetylated at lysine 5, 8, 12, 16
T1 construct: H4 peptide (amino acids 1-20); host or cells: H4 peptide made by chemical synthesis; Flag-CTK proteins made in Sf9 cells with baculovirus
Experimental: FIG. 6. (A) Silver stained gel corresponding to the autoradiograms shown inn FIG. 2B) of in vitro kinase assays containing γ^32P-ATP, native nucleosomes (top) or recombinant H2B (bottom), and TFIID, TAF1, or TAF1 derivatives (B) CTK(D1548A) binds acetylated histone H4. Western blot of protein:protein interaction assays. Anti-Flag antibody agarose beads loaded with recombinant Flag-CTK, Flag-CTK(D1548), or FLAG-110 (beads) were incubated with H4 peptide (amino acids 1-20) or H4 peptide [acetyl(H4)] acetylated at lysine 5, 8, 12, 16. Precipitated peptides were separated by SDS-PAGE, electrophoretically transferred onto nitrocellulose, and detected using antibodies to H4 (top) and acetylated H4 (bottom). (C) The CTK phosphorylates serine residues in H2BT. A schematic representation of H2BT is shown on top with highlighted positions of threonines (T) and serines (S). […]
The interaction of CTK and CTK(D1548A) with unmodified and acetylated H4 peptides was monitored as described (14, 15). […]

Molecule | H2B phosphorylation in vitro (qualitative) (H2B-S33) | Turnover values for phosphorylation of H2B-S33 (H2B-S33; substrate 3 μg H2B) [s⁻¹] | Turnover values for phosphorylation of H2B-S33 (H2B-S33; substrate 12 μg nucleosomes) [s⁻¹] | binding to acetylated H4 in vitro (acetylated H4)
CTK: COOH-terminal kinase domain of Drosophila TAF1, amino acids 1496-2132 (protein) LFPVSAKKVPDYYRVVTKPMDLQTMREYIRQRRYTSREMFLEDLKQIVDNSLIYNGPQSAYTLAAQRMFSSCFELLAEREDKLMRLEKAINPLLDDDDQVALSFIFDKLHSQIKQLPESWPFLKPVNKKQVKDYYTVIKRPMDLETIGKNIEAHRYHSRAEYLADIELIATNCEQYNGSDTRYTKFSKKILEYAQTQLIEFSEHCGQLENNIAKTQERARENAPEFDEAWGNDDYNFDRGSRASSPGDDYIDVEGHGGHASSSNSIHRSMGAEAGSSHTAPAVRKPAPPGPGEVKRGRGRPRKQRDPVEEVKSQNPVKRGRGRPRKDSLASNMSHTQAYFLDEDLQCSTDDEDDDEEEDFQEVSEDENNAASILDQGERINAPADAMDGMFDPKNIKTEIDLEAHQMAEEPIGEDDSQQVAEAMVQLSGVGGYYAQQQQDESMDVDPNYDPSDFLAMHKQRQSLGEPSSLQGAFTNFLSHEQDDNGPYNPAEASTSAASGADLGMDASMAMQMAPEMPVNTMNNGMGIDDDLDISESDEEDDGSRVRIKKEVFDDGDYALQHQQMGQAASQSQIYMVDSSNEPTTLDYQQPPQLDFQQVQEMEQLQHQVMPPMQSEQLQQQQTPQGDNDYAWTF | strongly phosphorylated H2B | 4.4 | 2.6 | –
CTK(D1538A): CTK with catalytically important aspartic acid of the S/T-kinase motif mutated to alanine (protein) LFPVSAKKVPDYYRVVTKPMDLQTMREYIRQRRYTSREMFLEALKQIVDNSLIYNGPQSAYTLAAQRMFSSCFELLAEREDKLMRLEKAINPLLDDDDQVALSFIFDKLHSQIKQLPESWPFLKPVNKKQVKDYYTVIKRPMDLETIGKNIEAHRYHSRAEYLADIELIATNCEQYNGSDTRYTKFSKKILEYAQTQLIEFSEHCGQLENNIAKTQERARENAPEFDEAWGNDDYNFDRGSRASSPGDDYIDVEGHGGHASSSNSIHRSMGAEAGSSHTAPAVRKPAPPGPGEVKRGRGRPRKQRDPVEEVKSQNPVKRGRGRPRKDSLASNMSHTQAYFLDEDLQCSTDDEDDDEEEDFQEVSEDENNAASILDQGERINAPADAMDGMFDPKNIKTEIDLEAHQMAEEPIGEDDSQQVAEAMVQLSGVGGYYAQQQQDESMDVDPNYDPSDFLAMHKQRQSLGEPSSLQGAFTNFLSHEQDDNGPYNPAEASTSAASGADLGMDASMAMQMAPEMPVNTMNNGMGIDDDLDISESDEEDDGSRVRIKKEVFDDGDYALQHQQMGQAASQSQIYMVDSSNEPTTLDYQQPPQLDFQQVQEMEQLQHQVMPPMQSEQLQQQQTPQGDNDYAWTF | weak autophosphorylation and H2B trans-phosporylation activities | – | – | retains the ability to bind acetylated H4 in vitro
